T1: G9a and GLP (Homo sapiens, UniProt Q96KQ7+Q9H9B1)
T1 sequence (Q96KQ7 2-1210 limits assumed): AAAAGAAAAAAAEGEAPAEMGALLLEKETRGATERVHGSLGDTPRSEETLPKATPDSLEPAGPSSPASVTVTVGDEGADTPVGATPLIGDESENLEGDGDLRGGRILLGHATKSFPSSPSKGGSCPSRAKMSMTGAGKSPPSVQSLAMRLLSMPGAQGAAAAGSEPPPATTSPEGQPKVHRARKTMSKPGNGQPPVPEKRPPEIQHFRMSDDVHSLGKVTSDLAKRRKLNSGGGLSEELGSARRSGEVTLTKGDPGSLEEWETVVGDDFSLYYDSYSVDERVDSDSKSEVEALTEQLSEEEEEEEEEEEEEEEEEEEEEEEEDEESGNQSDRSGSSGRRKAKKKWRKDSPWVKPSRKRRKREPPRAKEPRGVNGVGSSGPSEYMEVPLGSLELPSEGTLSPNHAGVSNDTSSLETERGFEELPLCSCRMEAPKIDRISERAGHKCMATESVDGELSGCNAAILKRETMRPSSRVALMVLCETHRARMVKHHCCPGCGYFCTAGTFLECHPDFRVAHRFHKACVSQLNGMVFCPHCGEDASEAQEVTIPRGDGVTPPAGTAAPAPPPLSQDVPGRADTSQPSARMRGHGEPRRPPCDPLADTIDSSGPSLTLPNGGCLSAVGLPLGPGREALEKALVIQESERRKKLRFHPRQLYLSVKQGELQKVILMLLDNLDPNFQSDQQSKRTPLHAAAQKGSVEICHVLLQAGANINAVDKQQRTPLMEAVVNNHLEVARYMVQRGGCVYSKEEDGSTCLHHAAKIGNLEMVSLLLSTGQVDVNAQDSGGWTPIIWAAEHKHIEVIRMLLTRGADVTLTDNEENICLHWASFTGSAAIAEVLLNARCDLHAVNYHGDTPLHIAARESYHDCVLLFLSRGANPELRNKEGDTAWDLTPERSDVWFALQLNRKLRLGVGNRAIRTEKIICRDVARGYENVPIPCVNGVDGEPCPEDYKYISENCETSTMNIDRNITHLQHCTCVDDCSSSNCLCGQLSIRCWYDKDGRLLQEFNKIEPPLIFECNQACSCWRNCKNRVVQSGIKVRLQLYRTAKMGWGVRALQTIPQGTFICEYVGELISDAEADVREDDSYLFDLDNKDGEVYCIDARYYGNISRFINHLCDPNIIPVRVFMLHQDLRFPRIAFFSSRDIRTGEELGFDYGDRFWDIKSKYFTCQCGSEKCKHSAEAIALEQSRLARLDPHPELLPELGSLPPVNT
T1 sequence (Q9H9B1 2-1298 limits assumed): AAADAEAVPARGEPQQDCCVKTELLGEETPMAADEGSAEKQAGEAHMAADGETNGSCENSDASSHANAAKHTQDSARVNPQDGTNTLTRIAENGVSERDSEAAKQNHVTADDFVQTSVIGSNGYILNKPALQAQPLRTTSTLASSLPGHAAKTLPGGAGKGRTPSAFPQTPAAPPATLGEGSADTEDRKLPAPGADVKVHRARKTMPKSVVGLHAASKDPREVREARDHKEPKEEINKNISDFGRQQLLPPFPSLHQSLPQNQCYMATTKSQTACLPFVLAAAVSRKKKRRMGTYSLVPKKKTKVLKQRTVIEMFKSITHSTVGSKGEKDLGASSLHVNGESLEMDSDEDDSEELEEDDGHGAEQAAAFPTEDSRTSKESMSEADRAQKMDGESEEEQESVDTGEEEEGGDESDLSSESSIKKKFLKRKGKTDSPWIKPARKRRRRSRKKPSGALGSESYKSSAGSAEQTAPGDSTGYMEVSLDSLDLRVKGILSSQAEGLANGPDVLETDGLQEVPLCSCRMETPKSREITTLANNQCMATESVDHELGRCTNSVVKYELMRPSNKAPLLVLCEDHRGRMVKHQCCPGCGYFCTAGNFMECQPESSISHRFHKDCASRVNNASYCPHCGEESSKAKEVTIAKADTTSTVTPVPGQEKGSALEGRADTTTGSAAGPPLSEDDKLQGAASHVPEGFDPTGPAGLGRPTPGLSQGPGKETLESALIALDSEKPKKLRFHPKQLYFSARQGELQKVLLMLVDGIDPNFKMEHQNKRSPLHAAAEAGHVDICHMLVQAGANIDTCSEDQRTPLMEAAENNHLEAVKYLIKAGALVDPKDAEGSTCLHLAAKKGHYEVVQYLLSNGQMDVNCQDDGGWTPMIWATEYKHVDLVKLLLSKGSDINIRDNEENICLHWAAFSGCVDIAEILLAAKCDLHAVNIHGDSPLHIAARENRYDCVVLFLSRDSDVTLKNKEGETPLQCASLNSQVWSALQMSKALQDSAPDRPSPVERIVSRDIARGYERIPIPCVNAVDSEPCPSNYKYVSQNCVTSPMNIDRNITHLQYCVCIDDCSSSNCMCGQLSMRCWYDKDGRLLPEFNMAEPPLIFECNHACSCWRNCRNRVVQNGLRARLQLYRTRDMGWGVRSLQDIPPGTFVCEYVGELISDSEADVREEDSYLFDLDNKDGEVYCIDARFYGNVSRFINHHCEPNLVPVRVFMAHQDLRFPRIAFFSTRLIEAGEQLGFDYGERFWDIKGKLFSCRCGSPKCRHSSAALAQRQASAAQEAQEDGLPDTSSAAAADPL

B1: SNX9 (protein, UniProt Q9Y5X1 1-595, looked up)
Sorting nexin-9: MATKARVMYDFAAEPGNNELTVNEGEIITITNPDVGGGWLEGRNIKGERGLVPTDYVEILPSDGKDQFSCGNSVADQAFLDSLSASTAQASSSAASNNHQVGSGNDPWSAWSASKSGNWESSEGWGAQPEGAGAQRNTNTPNNWDTAFGHPQAYQGPATGDDDDWDEDWDGPKSSSYFKDSESADAGGAQRGNSRASSSSMKIPLNKFPGFAKPGTEQYLLAKQLAKPKEKIPIIVGDYGPMWVYPTSTFDCVVADPRKGSKMYGLKSYIEYQLTPTNTNRSVNHRYKHFDWLYERLLVKFGSAIPIPSLPDKQVTGRFEEEFIKMRMERLQAWMTRMCRHPVISESEVFQQFLNFRDEKEWKTGKRKAERDELAGVMIFSTMEPEAPDLDLVEIEQKCEAVGKFTKAMDDGVKELLTVGQEHWKRCTGPLPKEYQKIGKALQSLATVFSSSGYQGETDLNDAITEAGKTYEEIASLVAEQPKKDLHFLMECNHEYKGFLGCFPDIIGTHKGAIEKVKESDKLVATSKITLQDKQNMVKRVSIMSYALQAEMNHFHSNRIYDYNSVIRLYLEQQVQFYETIAEKLRQALSRFPVM
B2: HNRNPA2B1 (protein, UniProt P22626 1-353, looked up)
Heterogeneous nuclear …: MEKTLETVPLERKKREKEQFRKLFIGGLSFETTEESLRNYYEQWGKLTDCVVMRDPASKRSRGFGFVTFSSMAEVDAAMAARPHSIDGRVVEPKRAVAREESGKPGAHVTVKKLFVGGIKEDTEEHHLRDYFEEYGKIDTIEIITDRQSGKKRGFGFVTFDDHDPVDKIVLQKYHTINGHNAEVRKALSRQEMQEVQSSRSGRGGNFGFGDSRGGGGNFGPGPGSNFRGGSDGYGSGRGFGDGYNGYGGGPGGGNFGGSPGYGGGRGGYGGGGPGYGNQGGGYGGGYDNYGGGNYGSGNYNDFGNYNQQPSNYGPMKSGNFGGSRNMGGPYGGGNYGPGGSGGSGGYGGRSRY
B3: HNRNPA3 (protein, UniProt P51991 1-378, looked up)
Heterogeneous nuclear …: MEVKPPPGRPQPDSGRRRRRRGEEGHDPKEPEQLRKLFIGGLSFETTDDSLREHFEKWGTLTDCVVMRDPQTKRSRGFGFVTYSCVEEVDAAMCARPHKVDGRVVEPKRAVSREDSVKPGAHLTVKKIFVGGIKEDTEEYNLRDYFEKYGKIETIEVMEDRQSGKKRGFAFVTFDDHDTVDKIVVQKYHTINGHNCEVKKALSKQEMQSAGSQRGRGGGSGNFMGRGGNFGGGGGNFGRGGNFGGRGGYGGGGGGSRGSYGGGDGGYNGFGGDGGNYGGGPGYSSRGGYGGGGPGYGNQGGGYGGGGGYDGYNEGGNFGGGNYGGGGNYNDFGNYSGQQQSNYGPMKGGSFGGRSSGSPYGGGYGSGGGSGGYGSRRF
B4: PRPF4 (protein, UniProt O43172 1-522, looked up)
U4/U6 small nuclear …: MASSRASSTQATKTKAPDDLVAPVVKKPHIYYGSLEEKERERLAKGESGILGKDGLKAGIEAGNINITSGEVFEIEEHISERQAEVLAEFERRKRARQINVSTDDSEVKACLRALGEPITLFGEGPAERRERLRNILSVVGTDALKKTKKDDEKSKKSKEEYQQTWYHEGPNSLKVARLWIANYSLPRAMKRLEEARLHKEIPETTRTSQMQELHKSLRSLNNFCSQIGDDRPISYCHFSPNSKMLATACWSGLCKLWSVPDCNLLHTLRGHNTNVGAIVFHPKSTVSLDPKDVNLASCAADGSVKLWSLDSDEPVADIEGHTVRVARVMWHPSGRFLGTTCYDRSWRLWDLEAQEEILHQEGHSMGVYDIAFHQDGSLAGTGGLDAFGRVWDLRTGRCIMFLEGHLKEIYGINFSPNGYHIATGSGDNTCKVWDLRQRRCVYTIPAHQNLVTGVKFEPIHGNFLLTGAYDNTAKIWTHPGWSPLKTLAGHEGKVMGLDISSDGQLIATCSYDRTFKLWMAE
B5: C20orf43 (protein, UniProt Q9BY42 1-306, looked up)
Replication termination …: MGCDGGTIPKRHELVKGPKKVEKVDKDAELVAQWNYCTLSQEILRRPIVACELGRLYNKDAVIEFLLDKSAEKALGKAASHIKSIKNVTELKLSDNPAWEGDKGNTKGDKHDDLQRARFICPVVGLEMNGRHRFCFLRCCGCVFSERALKEIKAEVCHTCGAAFQEDDVIMLNGTKEDVDVLKTRMEERRLRAKLEKKTKKPKAAESVSKPDVSEEAPGPSKVKTGKPEEASLDSREKKTNLAPKSTAMNESSSGKAGKPPCGATKRSIADSEESEAYKSLFTTHSSAKRSKEESAHWVTHTSYCF
B6: HNRNPD (protein, UniProt Q14103 2-355, looked up)
Heterogeneous nuclear …: SEEQFGGDGAAAAATAAVGGSAGEQEGAMVAATQGAAAAAGSGAGTGGGTASGGTEGGSAESEGAKIDASKNEEDEGHSNSSPRHSEAATAQREEWKMFIGGLSWDTTKKDLKDYFSKFGEVVDCTLKLDPITGRSRGFGFVLFKESESVDKVMDQKEHKLNGKVIDPKRAKAMKTKEPVKKIFVGGLSPDTPEEKIREYFGGFGEVESIELPMDNKTNKRRGFCFITFKEEEPVKKIMEKKYHNVGLSKCEIKVAMSKEQYQQQQQWGSRGGFAGRARGRGGGPSQNWNQGYSNYWNQGYGNYGYNSQGYGGYGGYDYTGYNNYYGYGDYSNQQSGYGKVSRRGGHQNSYKPY

These molecules were tested against T1, G9a and GLP (assay: Triple SILAC pull-down after UNC0638 treatment of 293T cells, DMSO/UNC0638 ratio of protein captured by 3×MBT). Conditions: SILAC ratio DMSO/UNC0638 of protein pulled down with 3xMBT; UNC0638 in heavy SILAC media.
Format: cell-based
Set-up: cells were treated for 24 hours with UNC0638 at 2.5 μM or DMSO vehicle control; endogenous in cells; host or cells: HEK 293T
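Wherever 3xMBT/D355N UNC Heavy is given: proteins quantified with MaxQuant, requiring at least two unique peptides and quantification in both label directions, normalized to the mean of proteins from a digested loading control.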
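Wherever 3xMBT/D355N UNC Light is given: proteins quantified with MaxQuant, requiring at least two unique peptides and quantification in both label directions, normalized to the mean of proteins from a digested loading control.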
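Wherever Relative to UNC0638 Average is given: mass spectrometry (Q-Exactive) SILAC quantitation, DMSO/UNC0638 ratio computed after subtracting 3×MBTD355N mutant pull-down background, only proteins with at least twofold 3×MBT over mutant signal considered.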
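Wherever Relative to UNC0638 UNC Heavy is given: mass spectrometry (Q-Exactive) SILAC quantitation, DMSO/UNC0638 ratio computed after subtracting 3×MBTD355N mutant pull-down background, only proteins with at least twofold 3×MBT over mutant signal considered.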
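Wherever Relative to UNC0638 UNC Light is given: mass spectrometry (Q-Exactive) SILAC quantitation, DMSO/UNC0638 ratio computed after subtracting 3×MBTD355N mutant pull-down background, only proteins with at least twofold 3×MBT over mutant signal considered.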

Relative to UNC0638 UNC Heavy [log base 2]	Molecule
0.31	B1
0.07	B2
0.20	B3
0.63	B4
2.48	B5
0.06	B6

Same assay, conditions: SILAC ratio DMSO/UNC0638 of protein pulled down with 3xMBT; UNC0638 in light SILAC media

Relative to UNC0638 UNC Light [log base 2]	Molecule
0.04	B1
0.28	B2
0.16	B3
−0.28	B4
−0.46	B5
0.29	B6

Same assay, conditions: average of UNC Light and UNC Heavy experiments

Relative to UNC0638 Average [log base 2]	Molecule
0.18	B1
0.18	B2
0.18	B3
0.18	B4
1.01	B5
0.18	B6

The molecules below were run on 3×MBT domain of L3MBTL1 (assay: Triple SILAC pull-down, 3xMBT/3xMBTD355N ratio (cytoplasmic, nuclear and chromatin fractions of 293T cells)). Conditions: SILAC ratio, pull-down 3xMBT vs 3xMBTD355N; experiment with UNC0638 in heavy SILAC media.
Format: binding, human

Molecule	3xMBT/D355N UNC Heavy [log base 2]
B1	2.60
B2	3.43
B3	2.96
B4	2.85
B5	1.26
B6	4.07

Same assay, conditions: SILAC ratio, pull-down 3xMBT vs 3xMBTD355N; experiment with UNC0638 in light SILAC media

Molecule	3xMBT/D355N UNC Light [log base 2]
B1	2.47
B2	3.97
B3	3.79
B4	2.26
B5	0.71
B6	4.56
